Assay results from the nanobody polyreactivity screen of Harvey et al. (2022).

Assay: yeast display, Sf9 membrane polyspecificity reagent, FACS + sequencing; frameworks hold sequencing errors
How it was run: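 Genes from sorted yeast were amplified by colony PCR, read by MiSeq 2 × 250 sequencing and filtered on CDR length. These cells carried a synthetic nanobody library in Saccharomyces cerevisiae BJ5465 and were sorted by FACS into low and high (top ~1%) gates on anti-HA and streptavidin fluorescence. Polyreactivity is labelled according to the gate of origin.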

| Sequence | polyreactivity (PSR sort gate) |
| --- | --- |
| QVQLVESGGGLVQAGGSLRLSCAASGLTFSTNAMGWYRQAPGKEREFVAAISFNGGSTYYADSVKGRFTISRDNAKNTVYLQMNSLKPEDTAVYYWNAVKYRYLEYNYWGQGTQVTVSS | high polyreactivity |
| QVQLVDSGGGLVQAGGSLRLSCAASGRTFNLYAMGWYRQAPGKERELVATIDWTGGSTYYADSVKGRFTISRDNAKNTVYLQMNSLKPEDTAVYYCNADRFADYDYWGQGTQVTVSS | low polyreactivity |
| QVQLVESGGGLVQAGGSLRLSCAASGRTFTWYAMGWYRQAPGKERELVAAITNGGRRYADSVKGRFTISRDNAKTTVYLQMNSLKPEDTAVYYCATQPLTWSSYRWDWRAQFDHWGQGTQVTVSS | low polyreactivity |
| QVQLVESGGGLVQAGGSLRLSCAASGFTFVRYAMGWYRQAPGKERELVAGISRRGGSTYYADSVKGRFTISRDNAKNTVYLQMNSLKPEDTAVYYCAAKPIYYSRGYYWGQGTQVTVSS | high polyreactivity |
| QVQLVESGGGLVQAGGSLRLSCAASGFTFRQYAMGGYGQAPGKEREWVASIRNGGSTNYADSVKGRFTISRDNAKNTDYFQMITLKPEDTALYYCSQRHSRTNMYYWGQGTQVTVSS | high polyreactivity |
| QVQLVESGGGLVQAGGSLRLSCDCSGRIFKRYDMGWYRQAPGKERELVAAITGTGGSTYYADSVKGRFTISRDNAKNTVYLQMNSLKPEDTAVYYCAARLYNTYSGFAFGYWGQGTQVTVSS | high polyreactivity |
| QVQLVESGGGIVQAGGSLRLSCAASGRTFTYNAMGRYRQAPGKERELVAAITYRGGSTYYADSVKGRFTISRDNAKNTVYLQMNSLKPEDTAVYYCAARVSYYRYNTPHYYYWGQGTQVTVSS | high polyreactivity |
| QVQLVESGGGLVQAGGSLRLSCAASGIIFYHYAMGWYRPAPGKEREFVAAITWDGGNTSYADSVKGRFTISRDYAKNTFYLQMNSLIPEDTAVYYCNTDRGPVKVSPLYESWGQGTQVTVSS | low polyreactivity |
| QVQLVESGGGLVQAGGSLRLTCAASGRIFRVNGMGWYRQAPWKERDLVAPIRRSGGSTYYADSVKGRFTISRDNSKNNVYLQMKSLKPEDTAVYYCAAPVLLSSYTRYDSWGQGTQVTVSS | high polyreactivity |
| QVQLVESGGGLVQAGGSLSLSCAASGRTFFKYAMGWYRQAPGKERELVASITGRGGSTYADSVKGRFTISRDNAKNTVYLQMNSLKPEDTAVYYCAKVYQRGAQYYYYKYDYWGQGTQVTVSS | high polyreactivity |
| QVQLVESGGGLVQAGGSLRLSCAASGSIFYNYAMGWYRQAPGKEREFVAAISRSGGSTYYADSVKGRFTISRDNAKNTVYLQMNSLKPEDSAVYYCAASTRYSAFYPYGYWGQGTQVTVSS | high polyreactivity |
| QVQLVESGGGLVQAGGSLRLSWAASGSTFRLYAMGWYRQAPGKERELVAAITWSGGSTYYADSVKGRFTISRDNAKNTVYLQMNSLKPEDTAVYYCAAHRIGYYLRVSYRGKYDHWGQGTQVTVSS | low polyreactivity |
| QVQNVESGGGLVQARGSLRLSCAASGRTFTESDMGRYRQAPGKERELVAAITSVGSTYYADSVKGRFTISRYNAKNTVYLQMNSLKPEDTAVYYCAAEWQNTNMDYWGQGTQVTVSS | low polyreactivity |
| QVQLVESVGGLVQAGGSLRLSCAASGRIFPTYAMGSSRQAPGKERELVAAISRSGGRTYYADSVKGRFTSSRDNAKNTVYLQMNSLKPEDTAVYYCNAEGDPYVDFPSRSTGYDYWGQGTQVTVSS | high polyreactivity |
| QVQLVESGGGLVQAGGSLRLSCAASGSIFNYYAMGWYRQAPGKERELVATITRGGSTYYADSVKGRFTISRDNAKNTVYLQMNRLKPEDTAVYYCAKVGRSTAYQNGYDYWGQGTQVTVSS | low polyreactivity |
| HVQVVESGGGLVQAGGSLRLSCAASGSTFPANAMGWYRQAPGKERELVAAISSSGGRTYYADSVKGRFTISRDNAQKTVYLQMNSLKPEDTAVYYCAAYGGGGYKYDYWGQGTQVSVSS | low polyreactivity |

| Sequence | polyreactivity (PSR sort gate) |
| --- | --- |
| QVQLVESGGGLVQAGGSLRLSCAASGRISFYYARGWSIQAPGKERELVAAISRGGSTYYADSVKGRFTISRDNAKNTVYLQMNSLKPEDTAVYYCAATYSVVDTPSGYDYWGQGTLVTVSS | low polyreactivity |
| QVQLVESGGGLVQAGGSLRLSCAASGSIFKRNAMGWYRQAPGKERELVAAIRVNGGITYYADSVKGRFTISRDNAKNTVFLQMNSLKPEDTSVYYCAVYSRQGLGYWGQGTQVTVSS | high polyreactivity |
| QVHLVESRGGLVQAGGSLSLSCAASGITFYIYAMGWYRQAHGKERELVAAFTTSGDSTYYADSVKGRFTISRDNAKNTVYLQMNSLKPEDTAVYDCAAEYWYTYSWGQGTQVTVLS | low polyreactivity |
| QVQIVESGGGLVHAGGSLRLSCAASGRIFPDYAMGWYRQAPGKERELVATISYSGGNTNYADSVKGRFTISRDNAKNTVYLQMNSLKPEDTAVYYCNTDWYLPRYVLLGYFSGTEDYWGQGTQVTVSS | low polyreactivity |
| QVQLVESGGGLVQAGGSLRLSCAASGFTFFPNAKGWYRQAPGKERELVADITDGGSTNYADSVKGRFTISRDNAKNTVYLQMNSLKPEDTAVYYCNADWYGWFGGYEYWGQGTQVTVSS | high polyreactivity |
| QVQLVESGGGLVQAGGSLRLSCAASGIYPYYAMGWYRQAPGKERELVATISSADGPKYADSVKGRFTISRDNAKNTVYLQMNSLKPEDTAVYYCNAYVWSWHDYWGQGTQVTVSS | low polyreactivity |
| QVQLVESGGGLVQAGGSLRLSCAASGRTFPYYAMGWSRQAPGKERELVAGITSNAGSTYYADSVKGRFTISRDNAKNTVYLQMNSLKPEDTAVYYCAKTKAGRWTTFKFGYWGQGTQVTVSS | high polyreactivity |
| QGQLVESGGGLVQAGGSLRLSCAASGFIFGTYAMGWYRQAPGKERELVAAITGSGGDTYYADSVKGRFTISRDNAKNTVYLQMNSLKPEDTAVYYCAAVRPPTPSRRREDYWGQGTQVTVSS | low polyreactivity |
| HVQLVESGGGLVQAGGSLRLSCAASGFIFRYYAMGWYRQAPGKERELVAAISWSGTPTFYADSVKGRFTISRDNAKNTVYLQMNSLKPEDTAVYYCAAETTGYDSYIQYEYWGQGTQVTVSS | high polyreactivity |
| QVQLVESGGGLVQAGGSLRLSCAASGSIFVYNVMGWYRQAPGKERELVAAISKTAGRTYYEDSVKGRFTISRDNAKNTVYLQMNSLKPEDTAVYYFAVGNKRDAYYQYSSYGYWGQGTQVTVSS | low polyreactivity |
| QVQLVESGGGLVQAGGSLRLSCAASGSIFNVYGMGWYRQAPGKERELVAAISKSGTSTSYADSVKGRFTISRDNAKNTVYLQMNSLKPEDTAVYYRNAGYRTWWGKKYDYWGQGTQVTVSS | low polyreactivity |
| QVQLVESGGGLVQAGGSLRLSCAASASTLYYNAMAWYIQAPGKERELVAAITSGGSTSYADSVKGRFTISRDNAKNTVYLQMNSLKPEDTAVYYCAAVFYRRFDYWGQGTQVTVSS | low polyreactivity |
| QVQLVESGGGLVQAGGSLRLSCAASGRIFNLYAMGWYRQAPGKERELVAAISSGGSTYYADSVKGRFTISRDNAKNTVYLQMNSLKPEDTAVYYCAAKNGDRYARGYWGQGTQVTVSS | high polyreactivity |
| QVQLVESGGGLVQAGGRLRLSCPASGRIFSLYAMGWYRQAPGKERELVAVISSTGVSSHYADSVKGRFTISRDNAKYTVYLLMNSLNPEDTAVYYCNARWSFPRWGYEYGYWGQGTQVTVSS | high polyreactivity |
| QVQLVESGGGLVQAGGSLRLSCAASGRTFLPNAMGWYRQAPGKERELVAAINWRGASTYYADSVKGRFTISRDNAKNTVYLQMNSLKPEDTAVYYCAVDSHYQSYYYRRYDYWGQGTQVTVSS | low polyreactivity |
| QVQLVESGGGLVQAGGSLRLSCAASGYILTHYAMGWYRQAPGKERELVAAITRVGNSNYADSVKGRFTISRDNAKNTVYLQMNSLKPEDTAVYYCAADGVASLFGDPPTEFDYWGQGTQVTVSS | low polyreactivity |
